Experiment [1] deals with T1, cynomolgus monkey RAGE, on cells (cynomolgus monkey, UniProt Q15109 23-404 (human entry)).
T1 construct: on transfected 293 cells or endogenous in lung sections; also called 293-cyno monkey RAGE; RAGE in monkey lung
T1 chain: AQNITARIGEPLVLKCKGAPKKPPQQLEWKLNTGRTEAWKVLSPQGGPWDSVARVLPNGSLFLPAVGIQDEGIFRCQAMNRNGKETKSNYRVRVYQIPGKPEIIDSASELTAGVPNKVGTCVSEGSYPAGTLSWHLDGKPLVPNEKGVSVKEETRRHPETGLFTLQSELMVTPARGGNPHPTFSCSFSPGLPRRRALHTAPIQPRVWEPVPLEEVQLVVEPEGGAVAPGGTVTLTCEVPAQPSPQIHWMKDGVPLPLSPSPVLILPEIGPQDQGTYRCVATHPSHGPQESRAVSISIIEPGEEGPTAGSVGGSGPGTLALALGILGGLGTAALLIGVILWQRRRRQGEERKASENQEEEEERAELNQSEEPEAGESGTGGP
Briefly: cell-based ELISA, transfected 293 cells. As to the method: (§1) Human embryonic kidney 293 cells (American Tissue Type Culture, Manassas, Va.) cells were plated at 5×10⁶ cells per 10 cm² tissue culture plate and cultured overnight at 37° C. The next day cells were transfected with RAGE expression plasmids (pAdori1-3 vector encoding mouse, human, baboon, cynomologus monkey or rabbit RAGE) using LF2000 reagent (Invitrogen, Carlsbad Calif.) at a 4:1 ratio of reagent to plasmid DNA using the manufacturers protocol. Cells were harvested 48 hrs post-transfection using trypsin, washed once with phosphate buffered saline (PBS), then suspended in growth media without serum at a concentration of 2×10⁶ cells/ml.
(§2) Primary antibodies at 1 μg/ml were serially diluted at 1:2 or 1:3 in PBS containing 1% bovine serum albumin (BSA) in a 96-well plate. RAGE-transfected 293 cells or control parental 293 cells (50 μl) at 2×10⁶ cells/ml in serum-free growth medium were added to U-bottom 96 well plate for a final concentration of 1×10⁵ cells/well. The cells were centrifuged at 1600 rpm for 2 minutes. The supernatants were gently discarded by hand with a one-time swing and the plate was patted gently to loose the cell pellet. The diluted primary anti-RAGE antibodies or isotype-matching control antibodies (100 μl) in cold PBS containing 10% fetal calf serum (FCS) were added to the cells and incubated on ice for 1 hour. The cells were stained with 100 μl of diluted secondary anti-IgG antibody HRP conjugates (Pierce Biotechnology, Rockford, Ill.) on ice for 1 hour. Following each step of primary antibody and secondary antibody incubations, the cells were washed 3 times with ice-cold PBS. 100 μl of substrate TMB1 component (BIO FX, TMBW-0100-01) was added to the plate and incubated for 5-30 minutes at room temperature. The color development was stopped by adding 100 μl of 0.18M H₂SO₄. The cells were centrifuged and the supernatants are transferred to a fresh plate and read at 450 nm (Soft MAX pro 4.0, Molecular Devices Corporation, Sunnyvale, Calif.).

Experiment [2] has as its target T2, human RAGE, full length, on cells (human, UniProt Q15109 23-404).
T2 construct: on transfected or infected 293 cells, stably transfected CHO cells, or endogenous in human lung sections; also called cell-surface hRAGE; 293-human RAGE
Briefly: cell-based ELISA, transfected 293 cells. The method, then: as §1, §2
In general terms: An ELISA detects its analyte on a solid surface through an enzyme-linked reagent.

The next experiment concerns the target T3, baboon RAGE, on cells (baboon, UniProt Q15109 23-404 (human entry)).
T3 construct: on transfected 293 cells or endogenous in lung sections; also called 293-baboon RAGE; RAGE in baboon lung
T3 chain: T1 chain with G347R
Briefly: cell-based ELISA, transfected 293 cells. The method, then:
as §1, §2

Experiment [3] concerns the target T4, human RAGE-Fc fusion protein (human, UniProt Q15109 23-344).
T4 construct: amino acids 1-344 of human RAGE appended to the Fc domain of human IgG; also called hRAGE-Fc; huRAGE-Fc
Briefly: ligand competition ELISA, panel 'Blocks hRAGE-Fc interaction with S100-B'; blocked ligand S100-B.

Experiment [4] concerns the target T5, human RAGE-strep tag fusion protein (human, UniProt Q15109 23-344).
T5 construct: monomeric soluble human RAGE; also called hRAGE-SA; soluble human streptavidin-tagged RAGE
Briefly: BIACORE capture assay: hRAGE-SA over antibody captured on anti-human Fc; 1:1 Langmuir global fit; FC3. As to the method: (§3) The assays were performed by coating anti-human Fc antibodies onto a CM5 BIA chip with 5000 RU (pH 5.0, 7 min.) in flow cells 1-4. Each antibody was captured by flowing at 2.0 μg/ml over the anti-Fc antibodies in flow cells 2-4 (flow cell 1 was used as a reference).
For orientation: Surface plasmon resonance follows binding to a sensor surface in real time, without labels.

For experiment [5], the target named is T6, murine RAGE-strep tag fusion protein (murine, UniProt Q62151 23-343).
T6 construct: also called mRAGE-strep; mRAGE-SA
T6 chain: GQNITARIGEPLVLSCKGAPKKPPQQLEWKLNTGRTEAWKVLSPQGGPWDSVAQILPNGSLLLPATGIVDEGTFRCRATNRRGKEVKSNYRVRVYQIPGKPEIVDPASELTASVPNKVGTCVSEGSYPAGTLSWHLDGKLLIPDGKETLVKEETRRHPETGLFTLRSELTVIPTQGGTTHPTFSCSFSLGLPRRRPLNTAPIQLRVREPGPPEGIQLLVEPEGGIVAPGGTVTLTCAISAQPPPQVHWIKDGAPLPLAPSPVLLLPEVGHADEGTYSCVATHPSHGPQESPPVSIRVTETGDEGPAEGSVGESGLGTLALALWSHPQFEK
The experiment in a line: BIACORE capture assay: mRAGE-SA (SA-Mu RAGE) over antibody captured on anti-human Fc; 1:1 Langmuir global fit; average of FC2-FC4. The method, then:
as §3

Experiment [6] addresses T6, murine RAGE-strep tag fusion protein. Briefly: BIACORE capture assay: mRAGE-SA (SA-Mu RAGE) over antibody captured on anti-human Fc; 1:1 Langmuir global fit; FC2. As to the method: as §3

Substitutions are numbered along the chain they refer to. Names may count otherwise.

B1: chimeric XT-M4 (antibody, V domains shown)
VH: EVQLVESGGGLVQPGRSLKLSCVVSGFTFNNYWMTWIRQTPGKGLEWVASINNSGDNTYYPDSVKDRFTISRDNAKSTLYLQMNSLRSEDTATYYCTRGGDITTGFDYWGQGVMVTVSS
VL: DIQMTQSPSSMSVSLGDTITITCRASQDVGIYVNWFQQKPGKSPRRMIYRATNLADGVPSRFSGSRSGSIYSLTISSLESEDVADYHCLEFDEHPLTFGSGTKVEIK
modifications: N-linked oligosaccharide at Asn52 (CDR2) on part of the heavy chains
notes: rat XT-M4 variable regions fused to human kappa light chain and human IgG1 heavy chain constant regions; L234A and G237A in the human IgG1 Fc region; also called chimeric antibody XT-M4; XT-M4-A-1
B1: the concentration for a half-maximal effect (EC50) is around 1.66 nM in experiment [1]; around 0.8 nM in experiment [2]; around 1.25 nM in the experiment with baboon RAGE, on cells. In experiment [3], the “IC50 (read off the curve)” value is around 0.08 µg/mL. The equilibrium dissociation constant (Kd) in experiment [4] amounted to 7.33 nM; in experiment [5] it was 1.9 nM; in experiment [6] it was 1.9 nM. Moreover, the figures for the koff in experiment [4], in experiment [5] and in experiment [6] were 0.0271 s⁻¹, 0.0041 s⁻¹ and 0.0042 s⁻¹, respectively. Further, the kon in experiment [4] is 3.7e+06 M⁻¹ s⁻¹; in experiment [5] it was 2.1e+06 M⁻¹ s⁻¹; in experiment [6], 2.2e+06 M⁻¹ s⁻¹.

A word on the EC50: it is the concentration giving half of the maximal effect. As a reminder, the Kd is the concentration at which binding is half-saturated. For orientation: koff means the rate constant with which the complex falls apart. For orientation: kon means the rate constant with which the complex forms.

(Values after US20070253950A1 (Pfizer, published 2007).)
